Experimental data from patent US20260258113.

Molecular target: alpha globin, endogenous, in perfused human omental arteries, P69905
Sequence (P69905 2-142): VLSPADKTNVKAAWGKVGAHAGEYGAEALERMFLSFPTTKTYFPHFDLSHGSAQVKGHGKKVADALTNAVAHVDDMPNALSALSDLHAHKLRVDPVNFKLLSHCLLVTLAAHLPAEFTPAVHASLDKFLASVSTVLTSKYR

B1: endothelial nitric oxide synthase (eNOS), endogenous, in human resistance arteries (protein)
chain: GNLKSVAQEPGPPCGLGLGLGLGLCGKQGPATPAPEPSRAPASLLPPAPEHSPPSSPLTQPPEGPKFPRVKNWEVGSITYDTLSAQAQQDGPCTPRRCLGSLVFPRKLQGRPSPGPPAPEQLLSQARDFINQYYSSIKRSGSQAHEQRLQEVEAEVAATGTYQLRESELVFGAKQAWRNAPRCVGRIQWGKLQVFDARDCRSAQEMFTYICNHIKYATNRGNLRSAITVFPQRCPGRGDFRIWNSQLVRYAGYRQQDGSVRGDPANVEITELCIQHGWTPGNGRFDVLPLLLQAPDDPPELFLLPPELVLEVPLEHPTLEWFAALGLRWYALPAVSNMLLEIGGLEFPAAPFSGWYMSTEIGTRNLCDPHRYNILEDVAVCMDLDTRTTSSLWKDKAAVEINVAVLHSYQLAKVTIVDHHAATASFMKHLENEQKARGGCPADWAWIVPPISGSLTPVFHQEMVNYFLSPAFRYQPDPWKGSAAKGTGITRKKTFKEVANAVKISASLMGTVMAKRVKATILYGSETGRAQSYAQQLGRLFRKAFDPRVLCMDEYDVVSLEHETLVLVVTSTFGNGDPPENGESFAAALMEMSGPYNSSPRPEQHKSYKIRFNSISCSDPLVSSWRRKRKESSNTDSAGALGTLRFCVFGLGSRAYPHFCAFARAVDTRLEELGGERLLQLGQGDELCGQEEAFRGWAQAAFQAACETFCVGEDAKAAARDIFSPKRSWKRQRYRLSAQAEGLQLLPGLIHVHRRKMFQATIRSVENLQSSKSTRATILVRLDTGGQEGLQYQPGDHIGVCPPNRPGLVEALLSRVEDPPAPTEPVAVEQLEKGSPGGPPPGWVRDPRLPPCTLRQALTFFLDITSPPSPQLLRLLSTLAEEPREQQELEALSQDPRRYEEWKWFRCPTLLEVLEQFPSVALPAPLLLTQLPLLQPRYYSVSSAPSTHPGEIHLTVAVLAYRTQDGLGPLHYGVCSTWLSQLKPGDPVPCFIRGAPSFRLPPDPSLPCILVGPGTGIAPFRGFWQERLHDIESKGLQPTPMTLVFGCRCSQLDHLYRDEVQNAQQRGVFGRVLTAFSREPDNPKTYVQDILRTELAAEVHRVLCLERGHMFVCGDVTMATNVLQTVQRILATEGDMELDEAGDVIGVLRDQQRYHEDIFGLTLRTQEVTSRIRTQSFSLQERQLRGAVPWAFDPPGSDTNSP
ROI average fluorescence lifetime after co-labelling with the alpha globin and eNOS antibodies (FLIM, FRET-like shift): the eNOS + HBA ROIs lie at about 2.9 to 3.6 ns, below HBA alone (about 3.6 to 4.2 ns) and eNOS alone (about 3.8 to 4.15 ns); p<0.0001 printed for both comparisons
fluorescence lifetime histogram after co-labelling with the alpha globin and eNOS antibodies (FLIM, FRET-like shift): the co-labelled curve d (HBA + eNOS) peaks at about 3.95 ns, left of HBA only (b, about 4.2 ns), eNOS only (c, about 4.25 ns) and unstained (a, about 4.35 ns)
